In patent publication US20240116985A1 (published 2024):
Starred links: 1 amine or outer side, 2 acyl side, 3 side chain; linkers in the order of their positions; H or OH if unused. Positions of bridges follow the written chain, without caps; N, C: chain ends. Non-standard residues stand in square brackets, D forms with d. Primed or numbered codes have the meaning given here. PyrS2″ = (S)-3-amino-1-((pent-4-en-1-yloxy)carbonyl)pyrrolidine-3-carboxylic acid (stapling residue), C=CCCCOC(=O)N1CC[C@@](N[*:1])(C(=O)[*:2])C1; (CH2CH2CO2H)TriAzDap = (S)-2-amino-3-(4-(2-carboxyethyl)-1H-1,2,3-triazol-1-yl)propanoic acid, O=C([C@H](Cn1cc(CCC(=O)[*:3])nn1)N[*:1])[*:2]; B5(4) = 2,2-bis(4-pentenyl)glycine = 2-amino-2-(pent-4-en-1-yl)hept-6-enoic acid (stitching residue), C=CCCCC(CCCC=C)(N[*:1])C(=O)[*:2]; B5(5) = 2,2-bis(4-pentenyl)glycine, 2-amino-2-(pent-4-en-1-yl)hept-6-enoic acid (stitching residue), C=CCCCC(CCCC=C)(N[*:1])C(=O)[*:2]; B5(9) = 2-amino-2-(pent-4-en-1-yl)hept-6-enoic acid (2,2-bis(4-pentenyl)glycine), C=CCCCC(CCCC=C)(N[*:1])C(=O)[*:2]; (2COOHPh)TriAzDab = O=C([C@H](CCn1cc(-c2ccccc2C(=O)[*:3])nn1)N[*:1])[*:2]; Phe(3-COOH) = N[C@@H](Cc1cccc(C(=O)O)c1)C(=O)O; 2F3MeF = Cc1cccc(C[C@H](N[*:1])C(=O)[*:2])c1F; Phe(2-CF3) = N[C@@H](Cc1ccccc1C(F)(F)F)C(=O)O; d(βAsp) = O=C(O)[C@@H](CC(=O)[*:2])N[*:1]; Phe(2-Cl) = N[C@@H](Cc1ccccc1Cl)C(=O)O; βAsp = O=C(O)[C@H](CC(=O)[*:2])N[*:1]; Met(O2) = CS(=O)(=O)CC[C@H](N)C(=O)O; Bta = N[C@@H](Cc1csc2ccccc12)C(=O)O; αAllylPro = C=CC[C@@]1(C(=O)O)CCCN1; tBuAla = CC(C)(C)C[C@H](N)C(=O)O; 3Thi = N[C@@H](Cc1ccsc1)C(=O)O; S8 = C=CCCCCCC[C@](C)(N)C(=O)O; PyrS2(4) = not defined here

T1: Bcat-Halo (UniProt P35222 1-781)
T1 sequence (looked up): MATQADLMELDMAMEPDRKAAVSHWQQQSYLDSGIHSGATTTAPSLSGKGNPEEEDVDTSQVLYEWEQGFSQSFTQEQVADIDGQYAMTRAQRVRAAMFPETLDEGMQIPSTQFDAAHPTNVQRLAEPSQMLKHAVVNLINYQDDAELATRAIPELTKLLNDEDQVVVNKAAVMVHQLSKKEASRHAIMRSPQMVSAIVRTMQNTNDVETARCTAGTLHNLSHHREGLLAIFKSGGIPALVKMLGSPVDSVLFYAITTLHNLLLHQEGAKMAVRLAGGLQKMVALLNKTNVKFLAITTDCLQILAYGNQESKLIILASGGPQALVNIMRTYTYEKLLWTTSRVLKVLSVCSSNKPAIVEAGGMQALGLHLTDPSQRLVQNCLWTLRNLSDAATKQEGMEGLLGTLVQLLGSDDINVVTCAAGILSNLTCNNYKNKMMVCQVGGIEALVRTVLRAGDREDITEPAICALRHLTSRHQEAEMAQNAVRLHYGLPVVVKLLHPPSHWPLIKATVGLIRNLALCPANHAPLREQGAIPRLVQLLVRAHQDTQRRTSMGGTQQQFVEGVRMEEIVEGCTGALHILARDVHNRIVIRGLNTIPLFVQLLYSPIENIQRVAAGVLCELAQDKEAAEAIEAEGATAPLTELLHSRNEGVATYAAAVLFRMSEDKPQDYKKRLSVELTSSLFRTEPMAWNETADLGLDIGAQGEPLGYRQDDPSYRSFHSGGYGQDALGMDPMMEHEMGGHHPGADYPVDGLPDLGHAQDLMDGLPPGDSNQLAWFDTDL

T2: B-cat-Halo (beta-catenin HaloTag construct expressed in HEK293 cells) (UniProt P35222 1-781)
T2 sequence (looked up): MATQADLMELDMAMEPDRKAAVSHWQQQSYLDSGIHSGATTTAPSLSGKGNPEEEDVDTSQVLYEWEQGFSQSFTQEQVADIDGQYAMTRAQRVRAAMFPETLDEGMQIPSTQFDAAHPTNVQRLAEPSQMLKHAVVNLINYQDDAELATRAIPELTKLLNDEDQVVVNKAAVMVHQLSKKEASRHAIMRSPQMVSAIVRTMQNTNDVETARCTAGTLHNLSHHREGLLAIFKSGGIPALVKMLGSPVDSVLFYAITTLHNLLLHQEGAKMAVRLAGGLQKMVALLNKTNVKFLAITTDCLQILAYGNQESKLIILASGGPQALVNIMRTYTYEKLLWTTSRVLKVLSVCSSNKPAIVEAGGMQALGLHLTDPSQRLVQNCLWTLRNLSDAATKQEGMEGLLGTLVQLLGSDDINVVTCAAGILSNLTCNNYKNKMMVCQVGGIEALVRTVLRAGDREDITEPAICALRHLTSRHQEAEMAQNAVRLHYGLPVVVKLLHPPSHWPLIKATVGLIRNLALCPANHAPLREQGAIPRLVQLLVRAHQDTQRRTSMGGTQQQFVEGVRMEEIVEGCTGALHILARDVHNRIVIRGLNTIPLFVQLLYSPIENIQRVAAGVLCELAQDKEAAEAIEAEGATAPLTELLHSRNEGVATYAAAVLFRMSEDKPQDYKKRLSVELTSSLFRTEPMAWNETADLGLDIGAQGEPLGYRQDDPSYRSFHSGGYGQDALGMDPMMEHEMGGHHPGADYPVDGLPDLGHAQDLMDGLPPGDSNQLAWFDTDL

T3: full-length beta-Catenin (Uniprot ID P35222) (Homo sapiens (Human), UniProt P35222 2-781)
T3 construct: 'mature' is the nearest allowed form; also called bCat; B-Catenin
T3 sequence: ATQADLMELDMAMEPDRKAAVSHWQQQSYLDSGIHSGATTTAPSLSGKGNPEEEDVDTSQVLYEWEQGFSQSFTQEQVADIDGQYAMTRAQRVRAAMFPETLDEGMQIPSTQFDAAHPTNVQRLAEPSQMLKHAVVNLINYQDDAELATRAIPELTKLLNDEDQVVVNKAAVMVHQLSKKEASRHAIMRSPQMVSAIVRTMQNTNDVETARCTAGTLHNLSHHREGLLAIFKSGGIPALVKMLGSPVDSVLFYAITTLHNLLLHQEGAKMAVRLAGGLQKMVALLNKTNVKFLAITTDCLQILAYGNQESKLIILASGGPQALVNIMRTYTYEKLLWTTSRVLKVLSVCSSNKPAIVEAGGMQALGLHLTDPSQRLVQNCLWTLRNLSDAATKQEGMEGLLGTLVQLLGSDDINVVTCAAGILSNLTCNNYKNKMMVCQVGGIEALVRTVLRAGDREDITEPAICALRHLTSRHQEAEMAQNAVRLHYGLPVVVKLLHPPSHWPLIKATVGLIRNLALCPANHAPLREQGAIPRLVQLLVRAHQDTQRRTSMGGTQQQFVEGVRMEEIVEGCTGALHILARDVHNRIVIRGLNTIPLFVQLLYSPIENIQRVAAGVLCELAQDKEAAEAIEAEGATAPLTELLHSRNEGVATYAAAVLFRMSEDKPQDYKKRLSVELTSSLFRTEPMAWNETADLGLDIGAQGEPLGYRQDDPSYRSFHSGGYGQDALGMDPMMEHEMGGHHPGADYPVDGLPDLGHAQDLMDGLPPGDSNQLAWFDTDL

B1: I-665 (peptide)
peptide: Ac-[αAllylPro]DI[B5(9)]DEAWFQ[S8]F[Bta]Q-NH2
modifications: staple 1-4, 4-11
notes: Stapled peptide composition; later-eluting HPLC peak (staple isomer)
B2: I-669 (peptide)
peptide: Ac-[αAllylPro][d(βAsp)]I[B5(9)]DEAAFQ[S8]F[Bta]Q-NH2
modifications: staple 1-4, 4-11
notes: as for B1

molecular target: T1, Bcat-Halo; experiment: cell-based or functional assay

In order of rising “NanoBRET Abs IC50” value:
1. Ac-[αAllylPro]D[tBuAla][B5(4)]D[Phe(3-COOH)]AAFL[PyrS2(4)][2F3MeF][Bta][dQ]-NH2 (staple 1-4, 4-11; reading uncertain) [I-2089]  2.9 µM
2. Ac-[αAllylPro]D[tBuAla][B5(4)]D[Phe(3-COOH)]AAFL[PyrS2″][3Thi][Bta][dQ]-NH2 (staple 1-4, 4-11) [I-2088]  4.4 µM
3. Ac-[αAllylPro]D[tBuAla][B5(4)]D[Phe(3-COOH)]AAFL[PyrS2(4)][3Thi][Bta][dA]-NH2 (staple 1-4, 4-11; reading uncertain) [I-2090]  5.9 µM
4. Ac-[αAllylPro]D[tBuAla][B5(4)]D[Phe(3-COOH)]AAFL[PyrS2″][Phe(2-CF3)][Bta][dA]-NH2 (staple 1-4, 4-11) [I-2091]  6.2 µM
5. Ac-[αAllylPro]D[tBuAla][B5(4)]D[(CH2CH2CO2H)TriAzDap]AAFL[PyrS2″][3Thi][Bta]Q-NH2 (staple 1-4, 4-11) [I-2082]  7.7 µM
6. Ac-[αAllylPro]D[tBuAla][B5(4)]D[(2COOHPh)TriAzDab]AAFL[PyrS2″][3Thi][Bta]Q-NH2 (staple 1-4, 4-11; not fully specified) [I-2080]  28.8 µM

molecular target: T2, B-cat-Halo (beta-catenin HaloTag …); experiment: cell-based or functional assay

In order of rising “NanoBRET Abs IC50” value:
1. Ac-[αAllylPro]D[tBuAla][B5(4)]D[Phe(3-COOH)]AAFL[PyrS2″][Phe(2-Cl)][Bta][Met(O2)]-NH2 (staple 1-4, 4-11) [I-2062]  3 µM
2. Ac-[αAllylPro]D[tBuAla][B5(4)]D[Phe(3-COOH)]NAFL[PyrS2″][Phe(2-CF3)][Bta]A-NH2 (staple 1-4, 4-11) [I-2058]  3.9 µM
3. Ac-[αAllylPro]D[tBuAla][B5(4)]D[Phe(3-COOH)]SAFL[PyrS2″][Phe(2-CF3)][Bta]A-NH2 (staple 1-4, 4-11) [I-2059]  4.8 µM
4. Ac-[αAllylPro]D[tBuAla][B5(4)]D[Phe(3-COOH)]TAFL[PyrS2″][Phe(2-CF3)][Bta]A-NH2 (staple 1-4, 4-11) [I-2060]  9.6 µM

molecular target: T3, full-length beta-Catenin (Uniprot ID …); experiment: fluorescence polarization competition, full-length beta-catenin with 5FAM-TCF4(10-53) probe as competitor
Protocol: The plate was incubated protected from light for 60 minutes at 20° C. prior to read. Reads were performed on a CLARIOstar plate reader (BMG Labtech) in duplicate, and data were fitted to a 1:1 binding model with hill slope using an in-house script. All provided concentrations are final concentrations.

In order of falling EC50:
1. Ac-[αAllylPro]DI[B5(9)][βAsp]EAAFQ[S8]F[Bta]Q-NH2 (staple 1-4, 4-11, Stapled peptide composition) [I-673]  5 µM
2. Ac-[αAllylPro]DI[B5(5)][d(βAsp)]EAAFQ[S8]F[Bta]Q-NH2 (staple 1-4, 4-11, Stapled peptide composition) [I-674]  5 µM
3. B1  0.923 µM
4. B2  0.451 µM
